According to article doi:10.1101/2025.03.11.642517 (bioRxiv, 2025):

B1: DS90 clone, E. coli crude extract of the bacterial display library (VHH)
VHH: VQLVESGGGLVQAGGSLRLSCAASGRTFSSYVMGWYRQAPGKEREFVARISWSGGHTHSADSVKGRFTISRDNAKNTVYLQMNSLKPDDTAIYYCNAEPTVTGSWFTPGLQSYWGQGTQVTVSS
B2: Bacterially expressed DS90-cMyc (VHH)
VHH: VQLVESGGGLVQAGGSLRLSCAASGRTFSSYVMGWYRQAPGKEREFVARISWSGGHTHSADSVKGRFTISRDNAKNTVYLQMNSLKPDDTAIYYCNAEPTVTGSWFTPGLQSYWGQGTQVTVSS
B3: DS76 clone, E. coli crude extract of the bacterial display library (VHH)
VHH: VQLVESGGGLVQAGGSLGLSCAASGRTFSSYVMGWYRQAPGKEREFVARISWSGGHTHSADSVKGRFTISRDNAKNTVYLQMNSLKPDDTAIYYCNAEPSVTGSWFTPGLQSYWGQGTQVTVSS
B4: DS34 clone, E. coli crude extract of the bacterial display library (VHH)
VHH: VQLVESGGGLVQAGGSLRLSCAASGRTFSSYVMGWYRQAPGKEREFVARISWSGGHTHSADSVKGRFTISRDNAKNTVYLQMNSLKPDDTAIYYCNAEPTATGSWFTPGLQSYWGQGTQVTVSS
B5: DS29 clone, E. coli crude extract of the bacterial display library (VHH)
VHH: VQLVESGGGLVQPGGSLRLSCAASGFTFDDYGMSWVRQAPGKGLEWVSAISWNGGGTYYAESMKGRFTISRDNAKNTVYLQMNGLKPEDTAVYYCAKPSTYSGSWLTDFGSWGQGTQVTVSS
B6: Biotinylated prefusion NiV F with AviTag (domain or fragment)
chain: ILHYEKLSKIGLVKGVTRKYKIKSNPLTKDIVIKMIPNVSNMSQCTGSVMENYKTRLNGILTPIKGALEIYKNNTHDLVGDVRLAGVIMAGVAIGIATAAQITAGVALYEAMKNADNINKLKSSIESTNEAVVKLQETAEKTVYVLTALQDYINTNLVPTIDKISCKQTELSLDLALSKYLSDLLFVFGPNLQDPVSNSMTIQAISQAFGGNYETLLRTLGYATEDFDDLLESDSITGQIIYVDLSSYYIIVRVYFPILTEIQQAYIQELLPVSFNNDNSEWISIVPNFILVRNTLISNIEIGFCLITKRSVICNQDYATPMTNNMRECLTGSTEKCPRELVVSSHVPRFALSNGVLFANCISVTCQCQTTGRAISQSGEQTLLMIDNTTCPTAVLGNVIISLGKYLGSVNYNSEGIAIGPPVFTDKVDISSQISSMNQSLQQSKDYIKEAQRLLDT
modifications: biotin (on the AviTag, by BirA)

Key:
[1] = biological target: NiV F expressed in HeLa cells under IRES-GFP (Nipah virus, Malaysia, UniProt Q9IH63); experiment: immunostaining of cells or tissue
[2] = biological target: DS90 Fc dimer (DS90 nanobody fused to human Fc) (alpaca (Vicugna pacos)); experiment: SPR
[3] = biological target: DS90 FcM (DS90 nanobody fused to human monomeric Fc) (alpaca (Vicugna pacos)); experiment: SPR
[4] = biological target: DS76 FcM (DS76 nanobody fused to human monomeric Fc) (alpaca (Vicugna pacos)); experiment: SPR
[5] = biological target: DS34 FcM (DS34 nanobody fused to human monomeric Fc) (alpaca (Vicugna pacos)); experiment: SPR

Binder | binding result [1] | other results
B1 | binds | 
B2 | binds | 
B3 | binds | 
B4 | binds | 
B5 | binds | 
B6 |  | binding result [2]: binds; Kd [3]: 4.83 nM; Kd [4]: 303 nM; Kd [5]: 23.4 nM
